Measured values from doi:10.1101/2025.05.22.653117.

What was measured:
[1] = target: MbTEC^PH (R28E) (Monosiga brevicollis); test: FP; conditions: domain or fragment
[2] = target: MbTEC^PH (isolated PH domain of Monosiga brevicollis TEC), wild type, labeled with Atto488 (Monosiga brevicollis); test: fluorescence polarisation
[3] = target: MbTEC^PH (R28E) (Monosiga brevicollis); test: fluorescence polarisation

Substance | Kd [1] | Kd [2] | fold weakening against wild-type MbTEC^PH [3]
MbTEC^32K (SH3-SH2-kinase module of Monosiga brevicollis TEC), wild type | 22.4 µM |  | 
MbTEC^32K (SH3-SH2-kinase module of Monosiga brevicollis TEC), wild type (domain or fragment) |  | 4 µM | 5 fold
